These results are taken from article doi:10.1101/2022.01.11.475808, “Hypoxia Dynamically Regulates DBC1 Ubiquitination and Stability by SIAH2 and OTUD5 in Breast Cancer Progression” (bioRxiv, 2022).

Experiment [1] deals with T1, N-terminal half of His-DBC1 (1-461) (human, UniProt Q8N163 1-461).
T1 construct: source: E. coli, bacterially expressed
As to the kind of experiment: pull-down; GST-SIAH2 and His-DBC1 proteins generated in E. coli, incubated in vitro overnight, then GST beads for 2 h at 4 °C. Particulars: both partners purified.

The target of a further experiment is T2, His-DBC1 (human, UniProt Q8N163 1-923).
T2 construct: Deleted in Breast Cancer 1 (DBC1, CCAR2), human, bacterially expressed as His-DBC1; also called His-tagged DBC1; source: E. coli BL21, purified
The description is as above. Particulars: both partners purified.

T2 sequence (Q8N163 whole entry): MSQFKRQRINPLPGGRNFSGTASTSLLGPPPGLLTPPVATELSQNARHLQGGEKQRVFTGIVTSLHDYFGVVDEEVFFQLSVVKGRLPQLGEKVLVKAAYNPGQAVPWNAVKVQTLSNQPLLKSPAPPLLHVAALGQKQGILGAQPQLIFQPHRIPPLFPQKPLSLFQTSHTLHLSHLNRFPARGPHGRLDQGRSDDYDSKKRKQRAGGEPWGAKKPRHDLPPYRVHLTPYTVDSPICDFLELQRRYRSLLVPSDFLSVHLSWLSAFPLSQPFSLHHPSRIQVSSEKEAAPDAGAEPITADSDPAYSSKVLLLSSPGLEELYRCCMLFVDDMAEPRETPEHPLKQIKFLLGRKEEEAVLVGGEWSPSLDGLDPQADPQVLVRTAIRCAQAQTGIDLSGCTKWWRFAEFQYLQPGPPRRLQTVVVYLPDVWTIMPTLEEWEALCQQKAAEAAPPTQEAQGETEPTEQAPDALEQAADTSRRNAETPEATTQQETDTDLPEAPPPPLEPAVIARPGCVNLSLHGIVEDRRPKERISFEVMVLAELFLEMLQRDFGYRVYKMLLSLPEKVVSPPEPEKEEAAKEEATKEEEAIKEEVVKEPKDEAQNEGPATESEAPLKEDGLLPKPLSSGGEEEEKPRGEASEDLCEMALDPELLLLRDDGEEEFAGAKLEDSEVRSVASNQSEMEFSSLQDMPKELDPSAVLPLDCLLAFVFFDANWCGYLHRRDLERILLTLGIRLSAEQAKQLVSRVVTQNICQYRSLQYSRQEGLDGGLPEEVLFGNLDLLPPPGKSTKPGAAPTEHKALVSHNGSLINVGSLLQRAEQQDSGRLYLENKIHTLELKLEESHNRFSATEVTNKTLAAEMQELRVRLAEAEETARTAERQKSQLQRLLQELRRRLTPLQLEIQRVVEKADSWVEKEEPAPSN
T1 sequence (Q8N163 1-461): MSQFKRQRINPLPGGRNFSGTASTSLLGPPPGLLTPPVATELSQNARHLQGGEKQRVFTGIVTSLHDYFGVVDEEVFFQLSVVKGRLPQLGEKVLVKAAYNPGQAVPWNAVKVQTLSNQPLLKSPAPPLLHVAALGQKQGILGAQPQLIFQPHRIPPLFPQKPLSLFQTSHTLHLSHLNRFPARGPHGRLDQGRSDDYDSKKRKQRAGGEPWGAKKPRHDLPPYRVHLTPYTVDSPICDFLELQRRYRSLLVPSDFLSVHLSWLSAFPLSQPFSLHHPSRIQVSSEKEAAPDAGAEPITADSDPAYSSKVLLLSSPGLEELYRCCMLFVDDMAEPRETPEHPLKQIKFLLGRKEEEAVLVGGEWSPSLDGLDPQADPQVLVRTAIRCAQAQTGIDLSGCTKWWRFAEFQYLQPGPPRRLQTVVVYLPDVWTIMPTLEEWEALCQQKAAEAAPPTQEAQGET

B1: GST-SIAH2 (enzyme, human, UniProt O43255 1-324, looked up)
chain: MSRPSSTGPSANKPCSKQPPPQPQHTPSPAAPPAAATISAAGPGSSAVPAAAAVISGPGGGGGAGPVSPQHHELTSLFECPVCFDYVLPPILQCQAGHLVCNQCRQKLSCCPTCRGALTPSIRNLAMEKVASAVLFPCKYATTGCSLTLHHTEKPEHEDICEYRPYSCPCPGASCKWQGSLEAVMSHLMHAHKSITTLQGEDIVFLATDINLPGAVDWVMMQSCFGHHFMLVLEKQEKYEGHQQFFAIVLLIGTRKQAENFAYRLELNGNRRRLTWEATPRSIHDGVAAAIMNSDCLVFDTAIAHLFADNGNLGINVTISTCCP
notes: E3 ubiquitin ligase SIAH2, human, bacterially expressed as GST-SIAH2; also called purified glutathione S-transferase (GST) SIAH2; source: E. coli BL21, purified
In the case of B1, the binding result (in experiment [1]; with His-DBC1) was “binds” each time.
